Data reported in patent US20120014911A1 (published 2012).

Target: T1, endogenous PKD1 from 293T cells (human, UniProt Q15139 1-912)
T1 construct: also called PKD1/PKCµ
T1 sequence (looked up): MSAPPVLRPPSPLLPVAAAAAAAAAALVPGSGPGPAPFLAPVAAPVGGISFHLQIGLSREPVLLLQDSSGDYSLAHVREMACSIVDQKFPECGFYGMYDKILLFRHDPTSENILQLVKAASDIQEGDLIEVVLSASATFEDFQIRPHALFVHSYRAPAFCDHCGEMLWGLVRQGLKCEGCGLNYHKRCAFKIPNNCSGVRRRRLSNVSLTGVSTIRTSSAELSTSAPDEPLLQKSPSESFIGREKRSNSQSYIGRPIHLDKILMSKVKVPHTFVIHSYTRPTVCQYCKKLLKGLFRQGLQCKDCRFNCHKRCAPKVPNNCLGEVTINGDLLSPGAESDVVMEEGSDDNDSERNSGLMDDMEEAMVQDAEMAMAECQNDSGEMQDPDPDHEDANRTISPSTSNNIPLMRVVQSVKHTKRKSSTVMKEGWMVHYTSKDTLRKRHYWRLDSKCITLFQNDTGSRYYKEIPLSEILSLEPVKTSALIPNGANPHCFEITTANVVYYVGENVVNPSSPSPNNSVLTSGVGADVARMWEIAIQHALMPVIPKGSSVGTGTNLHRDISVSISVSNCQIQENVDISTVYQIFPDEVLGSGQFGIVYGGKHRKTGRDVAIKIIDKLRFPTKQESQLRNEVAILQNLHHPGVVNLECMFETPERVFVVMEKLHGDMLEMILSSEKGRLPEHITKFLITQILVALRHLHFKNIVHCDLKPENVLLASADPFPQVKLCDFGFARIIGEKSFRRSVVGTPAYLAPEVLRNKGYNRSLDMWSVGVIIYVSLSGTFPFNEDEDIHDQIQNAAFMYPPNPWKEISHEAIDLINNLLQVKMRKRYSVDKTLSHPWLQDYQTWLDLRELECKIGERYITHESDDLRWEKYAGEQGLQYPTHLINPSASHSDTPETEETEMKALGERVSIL
Experiment: co-immunoprecipitation of endogenous proteins from 293T cell lysates, untreated or treated with IFN-α

B1: endogenous IFNAR1 from 293T cells (receptor, human, UniProt P17181 28-557, looked up)
chain: KNLKSPQKVEVDIIDDNFILRWNRSDESVGNVTFSFDYQKTGMDNWIKLSGCQNITSTKCNFSSLKLNVYEEIKLRIRAEKENTSSWYEVDSFTPFRKAQIGPPEVHLEAEDKAIVIHISPGTKDSVMWALDGLSFTYSLVIWKNSSGVEERIENIYSRHKIYKLSPETTYCLKVKAALLTSWKIGVYSPVHCIKTTVENELPPPENIEVSVQNQNYVLKWDYTYANMTFQVQWLHAFLKRNPGNHLYKWKQIPDCENVKTTQCVFPQNVFQKGIYLLRVQASDGNNTSFWSEEIKFDTEIQAFLLPPVFNIRSLSDSFHIYIGAPKQSGNTPVIQDYPLIYEIIFWENTSNAERKIIEKKTDVTVPNLKPLTVYCVKARAHTMDEKLNKSSVFSDAVCEKTKPGNTSKIWLIVGICIALFALPFVIYAAKVFLRCINYVFFPSLKPSSSIDEYFSEQPLKNLLLSTSEEQIEKCFIIENISTIATVEETNQTDEDHKKYSSQTSQDSGNYSNEDESESKTSEELQQDFV
notes: also called the receptor
binding result: no binding
